Laboratory results reported in article PMC8187593 (2021).

Molecular target: T1, cathepsin K mature active enzyme (Homo sapiens, UniProt P43235)
T1 chain: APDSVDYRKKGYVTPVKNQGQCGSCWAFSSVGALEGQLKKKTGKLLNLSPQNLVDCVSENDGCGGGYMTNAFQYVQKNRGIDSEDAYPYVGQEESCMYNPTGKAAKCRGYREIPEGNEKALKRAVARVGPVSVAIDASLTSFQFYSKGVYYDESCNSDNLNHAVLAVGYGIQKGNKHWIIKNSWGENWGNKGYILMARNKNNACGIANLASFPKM
Assay: SPR

B1: vitronectin (hVN) (protein)
chain: DQESCKGRCTEGFNVDKKCQCDELCSYYQSCCTDYTAECKPQVTRGDVFTMPEDEYTVYDDGEEKNNATVHEQVGGPSLTSDLQAQSKGNPEQTPVLKPEEEAPAPEVGASKPEGIDSRPETLHPGRPQPPAEEELCSGKPFDAFTDLKNGSLFAFRGQYCYELDEKAVRPGYPKLIRDVWGIEGPIDAAFTRINCQGKTYLFKGSQYWRFEDGVLDPDYPRNISDGFDGIPDNVDAALALPAHSYSGRERVYFFKGKQYWEYQFQHQPSQEECEGSSLSAVFEHFAMMQRDSWEDIFELLFWGRTSAGTRQPQFISRDWHGVPGQVDAAMAGRIYISGMAPRPSLAKKQRFRHRNRKGYRSQRGHSRGRNQNSRRPSRATWLSLFSSEESNLGANNYDDYRMDWLVPATCEPIQSVFFFSGDKYYRVNLRTRRVDTVDPPYPRSIAQYWLGCPAPGHL
Kd: 1.99 nM

B2: vitronectin (pVN) (protein)
chain: DQESCKGRCTDGFIAERKCQCDELCSYYQSCCTDYVAECKPQVTRGDVFLQPDDEYRAYDYHEETRHNTSVQEEQRIPVLLAKTEETPVLKPEEEAPPPGPQTDDLGVPEEELCSGKPFDAFTNLKNGSVFAFRGLYCYELDEKAVRPGYPKLIQDVWGIKGPIDAAFTRINCQGKTYLFKGSQYWRFDDGVLDPNYPREISEGFKGIPDDVDAALALPAHSYSGRERVYFFKGKQYWEYVFQQQPSREECEGSSPSDVFAHFALMQRDSWEDIFRLLFWSHSFGGAIEPRVISQDWLGLPEQVDAAMAGQIYISGSALKPSQPKMTKSARRSGKRYRSRRGRGRGRGHSRSQKSHRQSRSTWLPWFSSEETGPGGYNYDDYKMDWLVPATCEPIQSVYFFSGEEYYRVNLRTQRVDTVTPPYPRSIAQYWLGCPVPDQK
Kd: 4.2 nM
